{
  "source": "the RNAGym collection of RNA variant scans (doi:10.1093/nar/gkz1192)",
  "parents": {"B1": {"name": "CPEB3 Ribozyme (parent)", "chain": "UAACAGGGGGCCACAGCAGAAGCGUUCACGUCGCAGCCCCUGUCAGAUUCUGGUGAAUCUGCGAAUUCUGCUGUAUAUCUC"}},
  "data": [
    {"variants_of": "B1", "test": "self-cleavage, relative activity (ratio to wild type); higher = more cleavage; in vitro, sequencing", "procedure,_shortened": "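Relative activity compares each variant's cleaved/total read fraction with that of the unmutated ribozyme. To get these fractions, barcoded CPEB3 ribozyme libraries from rounds of error-prone PCR were transcribed with T7 RNA polymerase for 5 hours at 37°C and then given 15 min of DNase I treatment before EDTA was added. The RNAs were reverse transcribed with template switching and sequenced on Illumina, and DNA sequencing linked barcodes to variants. A minimum of 5 reads applied, and three batches were averaged.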", "values": [
      {"variant": "UAACAGGGGGCCACAGCAGAAGCGUUCACGUCGCAGCCCCUGUCAGAUUCUGGUGAAUCCGCGAAUUCUGCGGUAUAUCUC", "self-cleavage": 0.39},
      {"variant": "UAACAGGGGGCCACAGCAGAAGCGUUCACGUCGCAGCCCCUGUCAGAUUCUGGUGAAUCCGCGAAUUCUGCCGUAUAUCUC", "self-cleavage": 0.53},
      {"variant": "UAACAGGGGGCCACAGCAGAAGCGUUCACGUCGCAGCCCCUGUCAGAUUCUGGUGAAUCUACGAAUUCUGCUAUAUAUCUC", "self-cleavage": 1.21},
      {"variant": "UAACAGGGGGCCACAGCAGAAGCGUUCACGUCGCAGCCCCUGUCAGAUUCUGGUGAAUCGGCGAAUCCUGCUGUAUAUCUC", "self-cleavage": 0.13},
      {"variant": "UAACAGGGGGCCACAGCAGAAGCGUUCACGUCGCAGCCCCUGUCAGAUUCUGGUGAAUCGGCGAAUACUGCUGUAUAUCUC", "self-cleavage": 0.26},
      {"variant": "UAACAGGGGGCCACAGCAGAAGCGUUCACGUCGCAGCCCCUGUCAGAUUCUGGUGAAUCUACGAAUUCUGCUGUAUAUCUC", "self-cleavage": 0.75},
      {"variant": "UAACAGGGGGCCACAGCAGAAGCGUUCACGUCGCAGCCCCUGUCAGAUUCUGGUGAAUCGGCGAAUUCUGCUGAAUAUCUC", "self-cleavage": 0.82},
      {"variant": "UAACAGGGGGCCACAGCAGAAGCGUUCACGUCGCAGCCCCUGUCAGAUUCUGGUGAAUCGGCGAAUUCUGCUGCAUAUCUC", "self-cleavage": 0.88},
      {"variant": "UAACAGGGGGCCACAGCAGAAGCGUUCACGUCGCAGCCCCUGUCAGAUUCUGGUGAAUCUACGAAUUCUGCCGUAUAUCUC", "self-cleavage": 0.73},
      {"variant": "UAACAGGGGGCCACAGCAGAAGCGUUCACGUCGCAGCCCCUGUCAGAUUCUGGUGAAUCUACGAAUUCUGCAGUAUAUCUC", "self-cleavage": 0.3},
      {"variant": "UAACAGGGGGCCACAGCAGAAGCGUUCACGUCGCAGCCCCUGUCAGAUUCUGGUGAAUCGGCGAAUUCUGCUGUAUAUCUC", "self-cleavage": 0.48},
      {"variant": "UAACAGGGGGCCACAGCAGAAGCGUUCACGUCGCAGCCCCUGUCAGAUUCUGGUGAAUCCGCGAAUUCUGCUGUAUAUCGC", "self-cleavage": 0.44},
      {"variant": "UAACAGGGGGCCACAGCAGAAGCGUUCACGUCGCAGCCCCUGUCAGAUUCUGGUGAAUCCGCGAAUUCUGCUGUAUAUCAC", "self-cleavage": 0.61},
      {"variant": "UAACAGGGGGCCACAGCAGAAGCGUUCACGUCGCAGCCCCUGUCAGAUUCUGGUGAAUCCGCGAAUUCUGCUGUAUAUCCC", "self-cleavage": 0.57},
      {"variant": "UAACAGGGGGCCACAGCAGAAGCGUUCACGUCGCAGCCCCUGUCAGAUUCUGGUGAAUCCGCGAACUCUGCUGUAUAUCUC", "self-cleavage": 0.29},
      {"variant": "UAACAGGGGGCCACAGCAGAAGCGUUCACGUCGCAGCCCCUGUCAGAUUCUGGUGAAUCCGCGAAAUCUGCUGUAUAUCUC", "self-cleavage": 0.33},
      {"variant": "UAACAGGGGGCCACAGCAGAAGCGUUCACGUCGCAGCCCCUGUCAGAUUCUGGUGAAUCCGCGAAGUCUGCUGUAUAUCUC", "self-cleavage": 0.15},
      {"variant": "UAACAGGGGGCCACAGCAGAAGCGUUCACGUCGCAGCCCCUGUCAGAUUCUGGUGAAUCGGCGAAUUCUGCUGUAUGUCUC", "self-cleavage": 0.47},
      {"variant": "UAACAGGGGGCCACAGCAGAAGCGUUCACGUCGCAGCCCCUGUCAGAUUCUGGUGAAUCGGCGAAUUCUGCUGUAUUUCUC", "self-cleavage": 0.38},
      {"variant": "UAACAGGGGGCCACAGCAGAAGCGUUCACGUCGCAGCCCCUGUCAGAUUCUGGUGAAUCUACGAAUUCUGCUGUAUAUAUC", "self-cleavage": 1.16},
      {"variant": "UAACAGGGGGCCACAGCAGAAGCGUUCACGUCGCAGCCCCUGUCAGAUUCUGGUGAAUCUACGAAUUCUGCUGCAUAUCUC", "self-cleavage": 1.12},
      {"variant": "UAACAGGGGGCCACAGCAGAAGCGUUCACGUCGCAGCCCCUGUCAGAUUCUGGUGAAUCGGCGAAUUCUGCUGUAUAACUC", "self-cleavage": 0.36},
      {"variant": "UAACAGGGGGCCACAGCAGAAGCGUUCACGUCGCAGCCCCUGUCAGAUUCUGGUGAAUCGGCGAAUUCUGCUGUAUACCUC", "self-cleavage": 0.17},
      {"variant": "UAACAGGGGGCCACAGCAGAAGCGUUCACGUCGCAGCCCCUGUCAGAUUCUGGUGAAUCGGCGGAUUCUGCUGUAUAUCUC", "self-cleavage": 0.42},
      {"variant": "UAACAGGGGGCCACAGCAGAAGCGUUCACGUCGCAGCCCCUGUCAGAUUCUGGUGAAUCGGCGUAUUCUGCUGUAUAUCUC", "self-cleavage": 0.21},
      {"variant": "UAACAGGGGGCCACAGCAGAAGCGUUCACGUCGCAGCCCCUGUCAGAUUCUGGUGAAUCCGCGAAUUCUUCUGUAUAUCUC", "self-cleavage": 0.44},
      {"variant": "UAACAGGGGGCCACAGCAGAAGCGUUCACGUCGCAGCCCCUGUCAGAUUCUGGUGAAUCGGCGAGUUCUGCUGUAUAUCUC", "self-cleavage": 0.24},
      {"variant": "UAACAGGGGGCCACAGCAGAAGCGUUCACGUCGCAGCCCCUGUCAGAUUCUGGUGAAUCUACGAAUUCUGCUGUAUUUCUC", "self-cleavage": 0.98},
      {"variant": "UAACAGGGGGCCACAGCAGAAGCGUUCACGUCGCAGCCCCUGUCAGAUUCUGGUGAAUCUACGAAUUCUGCUGUAUGUCUC", "self-cleavage": 0.8},
      {"variant": "UAACAGGGGGCCACAGCAGAAGCGUUCACGUCGCAGCCCCUGUCAGAUUCUGGUGAAUCUACGAAUUCCGCUGUAUAUCUC", "self-cleavage": 0.53},
      {"variant": "UAACAGGGGGCCACAGCAGAAGCGUUCACGUCGCAGCCCCUGUCAGAUUCUGGUGAAUCUACGAAUUCAGCUGUAUAUCUC", "self-cleavage": 0.4},
      {"variant": "UAACAGGGGGCCACAGCAGAAGCGUUCACGUCGCAGCCCCUGUCAGAUUCUGGUGAAUCUACGAAUCCUGCUGUAUAUCUC", "self-cleavage": 0.36},
      {"variant": "UAACAGGGGGCCACAGCAGAAGCGUUCACGUCGCAGCCCCUGUCAGAUUCUGGUGAAUCUACGAAUGCUGCUGUAUAUCUC", "self-cleavage": 0.25},
      {"variant": "UAACAGGGGGCCACAGCAGAAGCGUUCACGUCGCAGCCCCUGUCAGAUUCUGGUGAAUCUACGAAUACUGCUGUAUAUCUC", "self-cleavage": 0.43}
    ]}
  ]
}
